In patent US20170051065A1 (Hoffmann-La Roche, published 2017):

Experiments:
[1] = target: human wildtype CSF-1R (wt CSF-1R) (human, UniProt P07333 20-972); assay: cell-based or functional assay
[2] = target: human mutant CSF-1R L301S Y969F (human) (UniProt P07333); assay: cell-based or functional assay

With “goat polyclonal anti-CSF-1R antibody ab10676 (abcam)” the wtCSF-1R IC30 (cell viability of NIH3T3-CSF-1R spheroids, CellTiterGlo) [1] was 14.2 µg/mL, the Mutant CSF-1R IC30 (cell viability of NIH3T3 mutant CSF-1R spheroids, CellTiterGlo) [2] was over 20 µg/mL and the inhibition of cell viability at 20 µg/ml (mutant CSF-1R spheroids) [2] was 0%.
